For one experiment, the target named is T1, human 4-1BB-His protein (human, UniProt Q07011 24-186).
T1 construct: not shown: His tag
Kind of experiment: ELISA, coated human 4-1BB-His, detection with anti-human IgG-HRP, OD450. For orientation: An ELISA detects its analyte on a solid surface through an enzyme-linked reagent.

Experiment [1] has as its target 4-1BB expressed on cells (HEK293-4-1BB, 4-1BB-Jurkat, GloResponse NFκB-luc2/4-1BB Jurkat) (UniProt Q07011). Description: Flow cytometry on HEK293-4-1BB cells, PE anti-human IgG, MFI. In general terms: In flow cytometry, cells or beads pass a laser one at a time.
Experiment [2] deals with human 4-1BB-biotin protein (human, UniProt Q07011 24-186, limits assumed). Description: Dual antigen capture ELISA: coated CLDN18.2 VLP, antibody titrated, then human 4-1BB-biotin at 1 ug/ml and streptavidin-HRP, OD450.
Experiment [3] addresses T2, 4-1BB expressed on cells (HEK293-4-1BB, 4-1BB-Jurkat, GloResponse NFκB-luc2/4-1BB Jurkat) (UniProt Q07011 24-255, limits assumed).
T2 construct: whole, on cells; also called HEK293 expressed 4-1BB; HEK293-4-1BB cells
Description: Flow cytometry on HEK293-4-1BB cells, PE anti-human IgG, MFI.
Description: To evaluate the antigen binding property, the anti-CLDN18.2-4-1BB antibodies were analyzed for their binding to HEK293 expressed 4-1BB by FACS. A total number of 1×10⁵ HEK293-4-1BB cells in each well were incubated with serial diluted antibodies for 30 minutes at 4° C. in FACS buffer (2% FBS in PBS). After wash by FACS buffer, PE conjugated-anti-human IgG antibody was added to each well and incubated at 4° C. for 30 minutes. After wash, MFI of PE was evaluated by FACS Caliber.

The target in a further experiment is T3, human 4-1BB-Fc protein (human, UniProt Q07011 24-186).
T3 construct: not shown: Fc part
Kind of experiment: ELISA, coated human 4-1BB-Fc.

Broadly, the EC50 (read off the curve) is the concentration at which the effect is half-maximal.

T1 sequence (Q07011 24-186 limits assumed): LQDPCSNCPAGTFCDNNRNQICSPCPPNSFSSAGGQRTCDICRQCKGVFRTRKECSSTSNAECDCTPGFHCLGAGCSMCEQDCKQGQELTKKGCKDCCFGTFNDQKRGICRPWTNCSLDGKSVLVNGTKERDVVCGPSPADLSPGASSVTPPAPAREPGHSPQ
T2 sequence (Q07011 24-255 limits assumed): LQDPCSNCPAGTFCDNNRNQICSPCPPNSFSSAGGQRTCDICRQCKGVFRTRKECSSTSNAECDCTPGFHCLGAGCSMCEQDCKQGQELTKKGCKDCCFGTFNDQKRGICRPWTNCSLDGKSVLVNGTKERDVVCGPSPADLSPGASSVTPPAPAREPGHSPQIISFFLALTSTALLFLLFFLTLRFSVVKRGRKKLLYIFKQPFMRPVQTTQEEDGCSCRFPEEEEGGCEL
Chain of 4-1BB expressed on cells (HEK293-4-1BB, 4-1BB-Jurkat, GloResponse NFκB-luc2/4-1BB Jurkat) (UniProt Q07011) (Q07011 24-255 limits assumed): as above
Chain of human 4-1BB-biotin protein (Q07011 24-186 limits assumed): as the sequence (Q07011 24-186 limits assumed) above
T3 sequence (Q07011 24-186 limits assumed): as above
Description for human 4-1BB-Fc protein: To evaluate the antigen binding activity, the antibodies were subjected to ELISA test. Briefly, microtiter plates were coated with human 4-1BB-Fc protein at 0.1 μg/ml in PBS, 100 μl/well at 4° C. overnight, then blocked with 100 μl/well of 5% BSA. Five-fold dilutions of the antibodies starting from 10 μg/ml were added to each well and incubated for 1-2 hours at RT. The plates were washed with PBS/Tween and then incubate with goat-anti-human IgG antibody conjugated with Horse Radish Peroxidase (HRP) for 1 hour at RT. After washing, the plates were developed with TMB substrate and analyzed by spectrophotometer at OD 450-630 nm.

For “urelumab (BMUR) anti-4-1BB monoclonal antibody”, the concentration for a half-maximal effect (EC50 (read off the curve)) with human 4-1BB-His protein turned out to be 0.6 nM; in experiment [1] it was 0.06 nM.

B1: 72C1B6A3 anti-CLDN18.2 monoclonal antibody (antibody, V domains shown)
VH: QVQLVQSGAEVKKPGASVKVSCKASGYTFTTYPIEWVRQAPGQRLEWMGNFHPYNDDTKYNEKFKGRVTITRDTSASTAYMELSSLRSEDTAVYYCARRAYGYPYAMDYWGQGTLVTVSS
VL: DIVMTQSPDSLAVSLGERATINCKSSQSLLNAGNQKNYLTWYQQKPGQPPKLLIYRASSRESGVPDRFSGSGSGTDFTLTISSLQAEDVAVYYCQNDYIYPYTFGGGTKLEIK
notes: also called CLDN18.2 mAb 72C1B6A3
Regarding B1, the binding result in experiment [2] is given as “no binding (tested: 100 nM)”.

B2: 1A10 anti-4-1BB monoclonal antibody (antibody, V domains shown)
VH: EVQLLESGGGLVQPGGSLRLSCAASGFTFSSYDMSWVRQAPGKGLEWVSWISYSGGSIYYADSVKGRFTISRDNSKNTLYLQMNSLRAEDTAVYYCARDAQRNSMREFDYWGQGTLVTVSS
VL: QSVLTQPPSASGTPGQRVTISCSGSSSNIGNNYVTWYQQLPGTAPKLLIYADSHRPSGVPDRFSGSKSGTSASLAISGLRSEDEADYYCATWDYSLSGYVFGGGTKLTVL
As to B2, the “EC50 (read off the curve)” value was approximately 0.5 nM in the experiment with human 4-1BB-His protein and approximately 0.2 nM in experiment [3].

B3: 41B01.02 anti-4-1BB antibody (antibody, V domains shown)
VH: EVQLLESGGGLVQPGGSLRLSCAASGFTFSSYDMSWVRQAPGKGLEWVSWISYSGGSIYYADSVKGRFTISRDNSKNTLYLQMNSLRAEDTAVYYCARDAQRQSMREFDYWGQGTLVTVSS
VL: QSVLTQPPSASGTPGRRVTISCSGSSSNIGNNYVTWYQQLPGTAPKLLIYADSHRPSGVPDRFSGSKSGTSASLAISGLRSEDEADYYCATWDYSLSGYVFGGGTKLTVL
notes: Full human anti-4-1BB antibody
For B3, in the experiment with human 4-1BB-Fc protein, the binding result was “binds”.
